Results as given in article PMC9357107.

Assays:
[1] = target: linker domain of human IGFBP2 (L-hIGFBP2; residues A97-C191) (human); experiment: NMR titration
[2] = target: insulin-like growth factor 2 (IGF-2) (human) (UniProt P01344); experiment: SPR
[3] = target: insulin-like growth factor 1 (IGF-1) (human) (UniProt P05019); experiment: SPR

Chain of UniProt P01344 (P01344 25-91): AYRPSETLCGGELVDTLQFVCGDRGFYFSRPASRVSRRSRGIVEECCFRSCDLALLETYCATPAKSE

insulin-like growth factor 1 (IGF-1) (from UniProt P05019 49-118) (ligand)
stoichiometry N [1]: 1

linker domain of human IGFBP2 (L-hIGFBP2; residues A97-C191) (domain or fragment)
Kd [2]: 3.7 µM
Kd [3]: 4.1 µM
